Assay [1] has as its target T1, OBn(GGS)2t-FhuA (barnase nanopore sensor) (Bacillus amyloliquefaciens / E. coli).
T1 chain: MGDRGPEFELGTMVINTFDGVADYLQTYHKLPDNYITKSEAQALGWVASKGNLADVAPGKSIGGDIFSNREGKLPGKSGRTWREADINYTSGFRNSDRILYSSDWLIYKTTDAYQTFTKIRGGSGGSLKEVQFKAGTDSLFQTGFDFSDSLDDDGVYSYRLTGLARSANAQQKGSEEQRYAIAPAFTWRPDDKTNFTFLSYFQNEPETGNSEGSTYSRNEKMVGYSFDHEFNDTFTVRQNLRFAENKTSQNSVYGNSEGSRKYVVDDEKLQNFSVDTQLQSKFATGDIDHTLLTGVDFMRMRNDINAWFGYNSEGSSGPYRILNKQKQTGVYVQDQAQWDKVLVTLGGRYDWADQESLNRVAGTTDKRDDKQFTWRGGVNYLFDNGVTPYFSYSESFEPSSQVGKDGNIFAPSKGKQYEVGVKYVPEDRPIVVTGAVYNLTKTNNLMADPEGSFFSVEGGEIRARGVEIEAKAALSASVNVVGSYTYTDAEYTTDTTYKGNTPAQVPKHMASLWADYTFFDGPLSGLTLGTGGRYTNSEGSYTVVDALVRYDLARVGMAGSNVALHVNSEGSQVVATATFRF
Briefly: other, single-molecule nanopore.

Assay [2] addresses T1, OBn(GGS)2t-FhuA (barnase nanopore …). Briefly: other, single-molecule nanopore, high Bs concentration.
For assay [3] the target is unchanged. Briefly: other, single-molecule nanopore, 300 mM KCl, pH 8.

B1: Barstar (Bs) (protein)
chain: MKKAVINGEQIRSISDLHQTLKKELALPEYYGENLDALWDALTGWVEYPLVLEWRQFEQSKQLTENGAESVLQVFREAKAEGADITIILS
On to B1, for which the Kd in assay [1] turned out to be 61 nM; in assay [2] it was 82 nM; in assay [3], 64 nM.
